Target: T1, HA-hFc probe: H1N1 A/California/04/2009 HA ectodomain fused to human IgG1 Fc (Influenza A virus A/California/04/2009 …, UniProt C3W5S1)
T1 construct: also called HA-probe; HA-human Fc probe; source: High Five insect cells (recombinant baculovirus), purified (HiTrap Protein G); not shown: Fc (human IgG1), C-terminal, kept
Test: flow cytometry on cells
Details: one partner purified

B1: fTfR-5J8 (Flag+) mutant D100bL (scFv, V domains shown)
VH: EVQLVESGPGLVKPSDILSLTCAVSGYSISSNYYWGWIRQPPGKGLEWIGSIYHSGSTYYKPSLESRLGISVDTSKNQFSLKLSFVSAADTAVYYCARHVRSGYPLTAYYFDKWGQGTLVTVSS
VL: SYVLTQPPSVSVAPGETARISCGGNNIGTKVLHWYQQTPGQAPVLVVYDDSDRPSGIPERFSGSNSGNTATLTISRVEVGDEADYYCQVWDISTDQAVFGGGTKLTVL
notes: also called D100bLeu
  binding result: binds

Reference: article PMC12090727, “Cell binding, uptake, and infection of influenza A virus using recombinant antibody-based receptors” (Journal of Virology, 2025)
